Residue numbers refer to the chain shown, from its start. Blank lines part the entries; values can stand above or below the binder they belong to.
Legend:
Activin A [1] = molecular target: T1, Activin A (human, UniProt P08476 311-426); assay: SPR, captured mAb, 25C
T1 construct: Homodimer of two βA subunits; bought from R&D Systems (#338-AC); also called inhibin-βA dimer; human Activin A
T1 sequence: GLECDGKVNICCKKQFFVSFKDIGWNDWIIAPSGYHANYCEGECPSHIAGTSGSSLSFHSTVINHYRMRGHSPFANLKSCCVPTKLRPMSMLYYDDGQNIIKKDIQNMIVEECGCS
In short: (§1)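 Association was monitored for 240 s and dissociation in buffer for 600 s. Rate constants came from kinetic fitting; KD was calculated as kd/ka and dissociative half-life as ln2/(60*kd), in minutes.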

Activin A [2] = molecular target: T1, Activin A; assay: SPR, captured mAb, 37C
In short: as §1

Activin B [3] = molecular target: T2, Activin B (human, UniProt P09529 293-407); assay: SPR, captured mAb, 25C; 25 C
T2 construct: Homodimer of two βB subunits; R&D Systems #659-AB
T2 chain: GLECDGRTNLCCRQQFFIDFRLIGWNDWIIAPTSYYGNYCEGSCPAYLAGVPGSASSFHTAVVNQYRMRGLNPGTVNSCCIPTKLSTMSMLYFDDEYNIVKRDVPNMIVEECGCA
Experimental: (§2) Antibody-antigen association was monitored for 240 seconds while dissociation in buffer was monitored for 600 seconds. Kinetic association and dissociation rate constants were determined by processing and fitting the data using Scrubber software version 2.0c. Binding equilibrium dissociation constants (KD) and dissociative half-lives (t_{1/2}) were then calculated from the kinetic rate constants as: KD (M)=kd/kₐ and t_{1/2} (min)=[ln 2/(60*kd)]. (NB=no binding observed under the conditions used; NT=not tested).

Activin A [4] = molecular target: T1, Activin A; assay: SPR, captured mAb, 37C; no dissociation observed, kd fixed
In short: as §1

Activin A [5] = molecular target: T1, Activin A; assay: Octet cross-competition; binder on anti-hFc tip; 50 nM hActivin A pre-bound with 1 uM H4H10429P (col 6); white box
Experimental: (§3) No. 8,309,082) and Control 3 (MAB3381, available from R&D Systems, Inc., Minneapolis, Minn.) were also included in the assays. All assays were performed at 25° C. with a microtiter plate shaking rate of 1000 rpm in Octet HBST buffer (0.01 M HEPES pH7.4, 0.15M NaCl, 3 mM EDTA, 0.05% v/v Surfactant P20, 0.1 mg/mL BSA) according to manufacturer's instructions (ForteBio Corp., Menlo Park, Calif.). […] Any remaining anti-hFc binding sites on the tips were blocked by incubating the tips in a 50 ug/mL solution of irrelevant antibody for 5 minutes.

Activin A [6] = molecular target: T1, Activin A; assay: Octet cross-competition; binder on anti-hFc tip; 50 nM hActivin A pre-bound with 1 uM H4H10430P (col 5); black box
Experimental: as §3

Activin A [7] = molecular target: T1, Activin A; assay: Octet cross-competition; binder on anti-hFc tip; 50 nM hActivin A pre-bound with 1 uM Control 1 (col 10); white box
Experimental: as §3

Activin A [8] = molecular target: T1, Activin A; assay: Octet cross-competition; binder on anti-hFc tip; 50 nM hActivin A pre-bound with 1 uM Control 3 (col 11); white box
Experimental: as §3

Activin A [9] = molecular target: T1, Activin A; assay: Octet cross-competition; binder on anti-hFc tip; 50 nM hActivin A pre-bound with 1 uM H4H10432P2 (col 7); white box
Experimental: as §3

Activin A [10] = molecular target: T1, Activin A; assay: Octet cross-competition; binder on anti-hFc tip; 50 nM hActivin A pre-bound with 1 uM H4H10436P2 (col 8); white box
Experimental: as §3

Activin A [11] = molecular target: T1, Activin A; assay: Octet cross-competition; binder on anti-hFc tip; 50 nM hActivin A pre-bound with 1 uM H4H10440P2 (col 9); white box
Experimental: as §3

Activin A [12] = molecular target: T1, Activin A; assay: Octet cross-competition; binder on anti-hFc tip; 50 nM hActivin A pre-bound with 1 uM H4H10442P2 (col 3); black box
Experimental: as §3

Activin A [13] = molecular target: T1, Activin A; assay: Octet cross-competition; binder on anti-hFc tip; 50 nM hActivin A pre-bound with 1 uM H4H10446P2 (col 1); black box
Experimental: as §3

Activin A [14] = molecular target: T1, Activin A; assay: Octet cross-competition; binder on anti-hFc tip; 50 nM hActivin A pre-bound with 1 uM H4H10468P2 (col 2); black box
Experimental: as §3

Activin A [15] = molecular target: T1, Activin A; assay: Octet cross-competition; binder on anti-hFc tip; 50 nM hActivin A mixed with 1 uM Isotype control 12 (-) (col 12); dark grey box
Experimental: as §3

Activin A [16] = molecular target: T1, Activin A; assay: Octet cross-competition; binder on anti-hFc tip; 50 nM hActivin A mixed with 1 uM Isotype control 13 (-) (col 13); dark grey box
Experimental: as §3

Activin B [17] = molecular target: T2, Activin B; assay: SPR, captured mAb, 25C
In short: as §1

Activin B [18] = molecular target: T2, Activin B; assay: SPR, captured mAb, 37C
In short: as §1

Activin A [19] = molecular target: T1, Activin A; assay: SPR, captured mAb, 25C; no dissociation observed, kd fixed
Experimental: as §2

Activin A [20] = molecular target: T1, Activin A; assay: Octet cross-competition; binder on anti-hFc tip; 50 nM hActivin A pre-bound with 1 uM H4H10423P (col 4); black box
Experimental: as §3

Activin A [21] = molecular target: T1, Activin A; assay: Octet cross-competition; binder on anti-hFc tip; 50 nM hActivin A pre-bound with 1 uM H4H10430P (col 5); white box
Experimental: as §3

Activin A-20 nM (RU) (Activin A [1]): 19.4 RU | Kd (Activin A [1]): 32.6 pM | koff (Activin A [1]): 0.000109 s⁻¹ | kon (Activin A [1]): 3.33e+06 M⁻¹ s⁻¹ | t1/2 (Activin A [1]): 1.77 h | Activin A-20 nM (RU) (Activin A [2]): 25.2 RU | Kd (Activin A [2]): ≤ 12.6 pM | kon (Activin A [2]): 3.95e+06 M⁻¹ s⁻¹ | t1/2 (Activin A [2]): ≥ 3.85 h | Kd (Activin B [3]): 61800 pM | koff (Activin B [3]): 0.0302 s⁻¹ | kon (Activin B [3]): 489000 M⁻¹ s⁻¹ | t1/2 (Activin B [3]): 24 s | koff (Activin A [4]): ≤ 5e-05 s⁻¹ | binding response (Activin A [5]): 1.48 | binding response (Activin A [6]): 0.28 | binding response (Activin A [7]): 0.6 | binding response (Activin A [8]): 0.79 | binding response (Activin A [9]): 1.32 | binding response (Activin A [10]): 1.49 | binding response (Activin A [11]): 1.31 | binding response (Activin A [12]): 0.59 | binding response (Activin A [13]): 0.51 | binding response (Activin A [14]): 0.58 | binding response (Activin A [15]): 0.39 | binding response (Activin A [16]): 0.26
B1: H4H10423P (antibody, human IgG4, V domains shown)
VH: QVQLQQSGPGLLKPSQTLSLTCAISGDSVSSNSAAWSWIRQSPSRGLEWLGRTYYRANWFNDYALSVKSRITINPVTSTNHFSLQLHSVTPEDTAVYYCAREGALGYYFDSWGQGTLVTVSS
VL: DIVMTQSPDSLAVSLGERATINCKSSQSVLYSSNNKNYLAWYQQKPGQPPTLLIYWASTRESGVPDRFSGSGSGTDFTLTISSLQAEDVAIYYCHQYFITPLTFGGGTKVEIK

Activin A-20 nM (RU) (Activin A [1]): 24.1 RU | Kd (Activin A [1]): ≤ 3.88 pM | kon (Activin A [1]): 1.29e+07 M⁻¹ s⁻¹ | t1/2 (Activin A [1]): ≥ 3.85 h | 50 nM Ag Bound (RU) (Activin B [17]): 3.6 RU | Activin A-20 nM (RU) (Activin A [2]): 31.5 RU | Kd (Activin A [2]): ≤ 3.25 pM | kon (Activin A [2]): 1.54e+07 M⁻¹ s⁻¹ | t1/2 (Activin A [2]): ≥ 3.85 h | 50 nM Ag Bound (RU) (Activin B [18]): 3.8 RU | binding result (Activin B [18]): no binding (tested: 50 nM) | koff (Activin A [19]): ≤ 5e-05 s⁻¹ | koff (Activin A [4]): ≤ 5e-05 s⁻¹ | binding response (Activin A [20]): 0.33 | binding response (Activin A [5]): 1.61 | binding response (Activin A [21]): 1.39 | binding response (Activin A [7]): 0.83 | binding response (Activin A [8]): 1.21 | binding response (Activin A [9]): 1.68 | binding response (Activin A [10]): 1.61 | binding response (Activin A [11]): 1.67 | binding response (Activin A [12]): 0.39 | binding response (Activin A [14]): 0.36 | binding response (Activin A [15]): 0.47 | binding response (Activin A [16]): 0.26
B4: H4H10446P2 (antibody, human IgG4, V domains shown)
VH: QVQLQESGPGLVKPSETLSLTCTVSGGSFSSHFWSWIRQPPGKGLEWIGYILYTGGTSFNPSLKSRVSMSVGTSKNQFSLKLSSVTAADTAVYYCARARSGITFTGIIVPGSFDIWGQGTMVTVSS
VL: not shown
notes: also called H4H20446

Further lines, the binder ahead of its results:

B2: H4H10442P2 (antibody, human IgG4, V domains shown)
VH: QVQLQESGPGLVKPSETLSITCTVSGGSFSSHFWTWIRQPPGKGLEWIGYLHYSGGTSYNPSLKSRVIISVDTSKNQFSLKLNSVTAADTAVYYCARARSGITFGGLIVPGSFDIWGQGTMVTVSS
VL: not shown
Activin A-20 nM (RU) (Activin A [1]): 31.3 RU | Kd (Activin A [1]): ≤ 4.55 pM | kon (Activin A [1]): 1.1e+07 M⁻¹ s⁻¹ | t1/2 (Activin A [1]): ≥ 3.85 h | 50 nM Ag Bound (RU) (Activin B [17]): 3.4 RU | binding result (Activin B [17]): no binding (tested: 50 nM) | Activin A-20 nM (RU) (Activin A [2]): 40.5 RU | Kd (Activin A [2]): ≤ 3.48 pM | kon (Activin A [2]): 1.44e+07 M⁻¹ s⁻¹ | t1/2 (Activin A [2]): ≥ 3.85 h | 50 nM Ag Bound (RU) (Activin B [18]): 4.4 RU | koff (Activin A [19]): ≤ 5e-05 s⁻¹ | koff (Activin A [4]): ≤ 5e-05 s⁻¹ | binding response (Activin A [20]): 0.27 | binding response (Activin A [5]): 1.55 | binding response (Activin A [21]): 1.33 | binding response (Activin A [7]): 0.99 | binding response (Activin A [8]): 0.99 | binding response (Activin A [9]): 1.59 | binding response (Activin A [10]): 1.44 | binding response (Activin A [11]): 1.5 | binding response (Activin A [13]): 0.35 | binding response (Activin A [14]): 0.36 | binding response (Activin A [15]): 0.46 | binding response (Activin A [16]): 0.26

B3: H4H10468P2 (antibody, human IgG4, V domains shown)
VH: B2 VH with I20L, T35S, L51I, H52Y, S58H, K64E, I68T
VL: not shown
Activin A-20 nM (RU) (Activin A [1]): 21.7 RU | Kd (Activin A [1]): ≤ 6.36 pM | kon (Activin A [1]): 7.86e+06 M⁻¹ s⁻¹ | t1/2 (Activin A [1]): ≥ 3.85 h | 50 nM Ag Bound (RU) (Activin B [17]): 6.2 RU | Activin A-20 nM (RU) (Activin A [2]): 24.5 RU | Kd (Activin A [2]): ≤ 4.1 pM | kon (Activin A [2]): 1.22e+07 M⁻¹ s⁻¹ | t1/2 (Activin A [2]): ≥ 3.85 h | 50 nM Ag Bound (RU) (Activin B [18]): 3.4 RU | binding result (Activin B [18]): no binding (tested: 50 nM) | koff (Activin A [19]): ≤ 5e-05 s⁻¹ | koff (Activin A [4]): ≤ 5e-05 s⁻¹ | binding response (Activin A [20]): 0.41 | binding response (Activin A [5]): 1.68 | binding response (Activin A [21]): 1.41 | binding response (Activin A [7]): 1.08 | binding response (Activin A [8]): 0.79 | binding response (Activin A [9]): 1.73 | binding response (Activin A [10]): 1.66 | binding response (Activin A [11]): 1.7 | binding response (Activin A [12]): 0.4 | binding response (Activin A [13]): 0.33 | binding response (Activin A [15]): 0.41 | binding response (Activin A [16]): 0.28

— patent publication US20150037339A1 (Regeneron, published 2015)
